Several values for one entry are separate records, joined by “and”; a condition that tells them apart may be missing. Identical values can stand only once. Like-named read-outs stand apart in the source and are kept apart here.
T1: recombinant human APRIL (Tonbo Biosciences) (human, UniProt O75888 105-250, limits assumed)
T1 sequence (looked up): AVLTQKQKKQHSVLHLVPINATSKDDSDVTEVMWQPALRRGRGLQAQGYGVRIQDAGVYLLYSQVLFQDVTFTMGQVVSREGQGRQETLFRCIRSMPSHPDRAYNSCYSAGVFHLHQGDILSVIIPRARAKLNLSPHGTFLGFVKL

T2: rat APRIL (rat, UniProt A0A8J8XC20 96-241)
T2 sequence: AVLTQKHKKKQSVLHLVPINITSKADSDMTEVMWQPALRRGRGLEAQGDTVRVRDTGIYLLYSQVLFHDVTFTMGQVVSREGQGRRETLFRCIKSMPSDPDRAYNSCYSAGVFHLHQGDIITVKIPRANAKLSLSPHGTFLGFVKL

T3: recombinant mouse APRIL (ProSci Incorporated) (mouse, UniProt Q9D777 96-241, limits assumed)
T3 sequence (looked up): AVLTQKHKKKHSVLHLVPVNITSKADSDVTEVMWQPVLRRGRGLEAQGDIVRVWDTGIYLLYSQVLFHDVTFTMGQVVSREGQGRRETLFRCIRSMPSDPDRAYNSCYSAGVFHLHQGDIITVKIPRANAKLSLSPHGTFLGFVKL


Assays:
Test in all cases: cell-based or functional assay
[1] = target: T1, recombinant human APRIL (Tonbo …)
[2] = target: T4, recombinant human BAFF (BioLegend) (human, UniProt Q9Y275 134-285)
[3] = target: T4, recombinant human BAFF (BioLegend); remark: listed apart in the source
[4] = target: T1, recombinant human APRIL (Tonbo …); remark: listed apart in the source
[5] = target: T4, recombinant human BAFF (BioLegend); remark: listed apart in the source
[6] = target: T1, recombinant human APRIL (Tonbo …); remark: listed apart in the source
[7] = target: T4, recombinant human BAFF (BioLegend); remark: listed apart in the source
[8] = target: T1, recombinant human APRIL (Tonbo …); remark: listed apart in the source
[9] = target: T4, recombinant human BAFF (BioLegend); remark: listed apart in the source
[10] = target: T5, recombinant mouse BAFF (R & D Systems) (mouse, UniProt Q9WU72 127-309)
cynomolgus monkey APRIL = cynomolgus monkey APRIL (cynomolgus monkey)
rat APRIL = target: T2, rat APRIL
[11] = target: T1, recombinant human APRIL (Tonbo …); remark: listed apart in the source
[12] = target: T3, recombinant mouse APRIL (ProSci …)
[13] = target: T4, recombinant human BAFF (BioLegend); remark: listed apart in the source
cynomolgus monkey BAFF = cynomolgus monkey BAFF (cynomolgus monkey, UniProt A0A2K5V2X4 134-285)
rat BAFF = rat BAFF (rat)
[14] = target: T1, recombinant human APRIL (Tonbo …); remark: listed apart in the source
[15] = target: T4, recombinant human BAFF (BioLegend); remark: listed apart in the source
[16] = target: T5, recombinant mouse BAFF (R & D Systems); remark: listed apart in the source
[17] = target: T4, recombinant human BAFF (BioLegend); remark: listed apart in the source
[18] = target: T3, recombinant mouse APRIL (ProSci …); remark: listed apart in the source
[19] = target: T1, recombinant human APRIL (Tonbo …); remark: listed apart in the source

T5 sequence (Q9WU72 127-309 limits assumed): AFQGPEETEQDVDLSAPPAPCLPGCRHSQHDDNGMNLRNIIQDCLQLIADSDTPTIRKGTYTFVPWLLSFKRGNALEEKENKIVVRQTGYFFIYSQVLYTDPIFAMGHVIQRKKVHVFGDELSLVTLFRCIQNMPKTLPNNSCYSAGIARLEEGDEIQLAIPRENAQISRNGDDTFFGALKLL

| Binder | IC50 (pM) APRIL [1] [pM] | IC50 (pM) BAFF [2] [pM] | IC50 (read off the curve) [5] [nM] | IC50 (nM) APRIL [8] [nM] | IC50 APRIL (Δ TACI 30-110-Fc) [8] [ratio] | IC50 (nM) BAFF [9] [nM] | IC50 BAFF (Δ TACI 30-110-Fc) [9] [ratio] | APRIL IC50 (pM) [14] [pM] | APRIL IC50 (Δ WT) [14] [ratio] | BAFF IC50 (pM) [15] | BAFF IC50 (Δ WT) [15] [ratio] | IC50 (read off the curve) [16] [nM] | IC50 (read off the curve) [17] [nM] | other results |
| --- | --- | --- | --- | --- | --- | --- | --- | --- | --- | --- | --- | --- | --- | --- |
| 13 TACI CRD2-Fc, WT TACI (68-110)-Fc (TACI 68-110, SEQ ID NO: 13, TACI-Fc SEQ ID NO: 171) (Fc fusion) SLSCRKEQGKFYDHLLRDCISCASICGQHPKQCAYFCENKLRSGSGGGGSEPKSSDKTHTCPPCPAPEAEGAPSVFLFPPKPKDTLMISRTPEVTCVVVDVSHEDPEVKFNWYVDGVEVHNAKTKPREEQYNSTYRVVSVLTVLHQDWLNGKEYKCKVSNKALPAPIEKTISKAKGQPREPQVYTLPPSRDELTKNQVSLTCLVKGFYPSDIAVEWESNGQPENNYKTTPPVLDSDGSFFLYSKLTVDKSRWQQGNVFSCSVMHEALHNHYTQKSLSLSPG | – | – | ~3 | 369 | 0.1 | 1330 | 0.23 | 12300 | 1 | 1850 pM | 1 | ~5 | ~2 | IC50 (read off the curve) [18]: ~0.7 nM |
| 7 TACI CRD1/CRD2-Fc (Fc fusion) TACI vTD-linker-Fc chain: VAMRSCPEEQYWDPLLGTCMSCKTICNHQSQRTCAAFCRSLSCRKEQGKFYDHLLRDCISCASICGQHPKQCDYFCENKLRSGSGGGGSEPKSSDKTHTCPPCPAPEAEGAPSVFLFPPKPKDTLMISRTPEVTCVVVDVSHEDPEVKFNWYVDGVEVHNAKTKPREEQYNSTYRVVSVLTVLHQDWLNGKEYKCKVSNKALPAPIEKTISKAKGQPREPQVYTLPPSRDELTKNQVSLTCLVKGFYPSDIAVEWESNGQPENNYKTTPPVLDSDGSFFLYSKLTVDKSRWQQGNVFSCSVMHEALHNHYTQKSLSLSPG | – | – | – | – | – | – | – | – | – | – | – | – | ~2 | IC50 (read off the curve) [19]: ~3 nM |

Now from value to binder, other results behind:

| IC50 (pM) APRIL [1] [pM] | IC50 (pM) BAFF [2] [pM] | IC50 (read off the curve) [5] [nM] | IC50 (nM) APRIL [8] [nM] | IC50 APRIL (Δ TACI 30-110-Fc) [8] [ratio] | IC50 (nM) BAFF [9] [nM] | IC50 BAFF (Δ TACI 30-110-Fc) [9] [ratio] | APRIL IC50 (pM) [14] [pM] | APRIL IC50 (Δ WT) [14] [ratio] | BAFF IC50 (pM) [15] | BAFF IC50 (Δ WT) [15] [ratio] | IC50 (read off the curve) [16] [nM] | IC50 (read off the curve) [17] [nM] | Binder | other results |
| --- | --- | --- | --- | --- | --- | --- | --- | --- | --- | --- | --- | --- | --- | --- |
| 1760 | 1340 | ~2 | 179 | 0.05 | 1220 | 0.21 | 9210 | 0.75 | 1550 pM | 0.84 | ~1 | – | 26 TACI CRD2-Fc (TACI vTD SEQ ID NO:26, K77E/F78Y/Y102D; Fc fusion SEQ ID NO: 167) (Fc fusion) SLSCRKEQGEYYDHLLRDCISCASICGQHPKQCADFCENKLRSGSGGGGSEPKSSDKTHTCPPCPAPEAEGAPSVFLFPPKPKDTLMISRTPEVTCVVVDVSHEDPEVKFNWYVDGVEVHNAKTKPREEQYNSTYRVVSVLTVLHQDWLNGKEYKCKVSNKALPAPIEKTISKAKGQPREPQVYTLPPSRDELTKNQVSLTCLVKGFYPSDIAVEWESNGQPENNYKTTPPVLDSDGSFFLYSKLTVDKSRWQQGNVFSCSVMHEALHNHYTQKSLSLSPG | IC50 value [3]: 0.078 µg/mL; IC50 (read off the curve) [4]: ~0.6 nM; IC50 (nM) APRIL [6]: 214 nM; IC50 APRIL (Δ TACI 30-110) [6]: 0.05 ratio; IC50 (nM) BAFF [7]: 1270 nM; IC50 BAFF (Δ TACI 30-110) [7]: 0.28 ratio; BAFF IC50 (nM), signal inhibition in Jurkat/NF-κB/TACI cells [10]: 15.2 nM; APRIL IC50 (nM), signal inhibition in Jurkat/NF-κB/TACI cells (cynomolgus monkey APRIL): 3.3 nM; APRIL IC50 (nM), signal inhibition in Jurkat/NF-κB/TACI cells (rat APRIL): 22.7 nM; APRIL IC50 (nM), signal inhibition in Jurkat/NF-κB/TACI cells [11]: 3.4 nM; APRIL IC50 (nM), signal inhibition in Jurkat/NF-κB/TACI cells [12]: 24.5 nM; BAFF IC50 (nM), signal inhibition in Jurkat/NF-κB/TACI cells [13]: 2.8 nM; BAFF IC50 (nM), signal inhibition in Jurkat/NF-κB/TACI cells (cynomolgus monkey BAFF): 1.9 nM; BAFF IC50 (nM), signal inhibition in Jurkat/NF-κB/TACI cells (rat BAFF): 3.8 nM |
| 17200 | 6850 | – | – | – | – | – | – | – | 9170 pM and 7300 pM | – | – | – | Telitacicept/Tai'ai (RemeGen) (Fc fusion) SRVDQEERFPQGLWTGVAMRSCPEEQYWDPLLGTCMSCKTICNHQSQRTCAAFCRSLSCRKEQGKFYDHLLRDCISCASICGQHPKQCAYFCENKLRSPVNLPPEL | – |
| 9260 | 8280 | – | – | – | – | – | – | – | 7740 pM | 4.17 | – | – | atacicept (WT TACI-Fc sequences corresponding to atacicept, containing WT TACI 30-110; SEQ ID NO:132) (Fc fusion) AMRSCPEEQYWDPLLGTCMSCKTICNHQSQRTCAAFCRSLSCRKEQGKFYDHLLRDCISCASICGQHPKQCAYFCENKLRSEPKSSDKTHTCPPCPAPEAEGAPSVFLFPPKPKDTLMISRTPEVTCVVVDVSHEDPEVKFNWYVDGVEVHNAKTKPREEQYNSTYRVVSVLTVLHQDWLNGKEYKCKVSNKALPSSIEKTISKAKGQPREPQVYTLPPSRDELTKNQVSLTCLVKGFYPSDIAVEWESNGQPENNYKTTPPVLDSDGSFFLYSKLTVDKSRWQQGNVFSCSVMHEALHNHYTQKSLSLSPGK | – |

From patent US20240279310A1 (ALPINE IMMUNE SCIENCES, published 2024)
